Source: patent US11028172

Assays:
[1] = biological target: biotin-labeled human TIGIT protein (human) (UniProt Q495A1); test: ELISA blocking assay: CD155-hFc coated, biotin-labeled human TIGIT, antibody titrated
[2] = biological target: human TIGIT-His protein (human) (UniProt Q495A1); test: ELISA, plate coated with human TIGIT-His, anti-human IgG-HRP, OD 450nm; unit taken from the axis Log[Conc.]/ng/ml
[3] = biological target: human TIGIT expressed on cells (human) (UniProt Q495A1); test: flow cytometry on human TIGIT overexpressing cells, Alexa Fluor 647 anti-human IgG; fitted top of a flat control curve, unit from the y axis
Chain of human TIGIT expressed on cells (human) (Q495A1 22-244): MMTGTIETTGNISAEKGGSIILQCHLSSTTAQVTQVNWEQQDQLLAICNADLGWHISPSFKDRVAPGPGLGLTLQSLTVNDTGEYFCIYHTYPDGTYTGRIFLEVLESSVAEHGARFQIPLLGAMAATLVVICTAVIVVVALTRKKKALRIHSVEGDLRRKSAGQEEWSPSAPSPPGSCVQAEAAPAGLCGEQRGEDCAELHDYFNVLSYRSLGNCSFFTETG

Chain of human TIGIT-His protein (human) (Q495A1 22-141 limits assumed): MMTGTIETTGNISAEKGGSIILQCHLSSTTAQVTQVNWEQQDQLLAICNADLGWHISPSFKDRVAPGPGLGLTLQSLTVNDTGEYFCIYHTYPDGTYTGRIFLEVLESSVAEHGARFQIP
Chain of biotin-labeled human TIGIT protein (human) (Q495A1 22-141 limits assumed): as above

| Substance | IC50 [1] [µg/mL] | EC50 [2] [µg/mL] | Top [3] [MFI] |
| --- | --- | --- | --- |
| Tiragolumab (RG6058, Roche) (antibody) | 0.531 | 0.00659 | – |
| total human IgG (antibody) | – | – | 110 |
